One molecule from US20110135573A1, “METALLOPROTEINASE 9 AND METALLOPROTEINASE 2 BINDING PROTEINS” (DYAX CORP., priority 2009, published 2011) can be followed below.

The target of series [1] is T1, Human MMP-9 catalytic domain (Homo sapiens, UniProt P14780).
T1 construct: Human MMP-9 catalytic domain (BIOMOL, SE-244); purchased BIOMOL SE-244
Nature of the series: Inhibition progress curves and kinetic analysis (kobs, kon, koff). Format: biochemical. The following applies: 25° C.; for kobs: substrate 9 μM. Here is the method:
The kinetics of the interaction between M0237-D02 and the human MMP-9 were determined. The rates were determined using the following equation: […]
The second order rate constant for the association of the enzyme E and the inhibitor I (kon) and the first order rate constant for the dissociation of the complex EI (koff) can be calculated from inhibition progress curves obtained at different inhibitor concentrations.
Materials: • Substrate: Mca-KPLGL-Dap(Dnp)-AR-NH2 (M-2350) from BACHEM (521575). A 10 mM stock solution was prepared in DMSO. • Human MMP-9 catalytic domain (BIOMOL, SE-244). • M0237-D02 hIgG1: 2517-068. • All measurements were performed at 25° C. in TCNB: 50 mM Tris/HCl, 10 mM CaCl2, 150 mM NaC10.05% Brij 35, pH 7.5. • 96-well black plates from Perkin Elmer (6005270) • Spectramax M2e to measure fluorescence emission of the substrate upon hydrolysis (λexc=328 nm and λem=393 nm)
The enzyme (at a final concentration ranging from 1.5 to 12.3 nM), the substrate (9 μM final) and the M0237-D02 antibody were mixed, and the fluorescence was immediately recorded in order to follow the hydrolysis of the substrate. The observed inhibition rate (kobs) was obtained by analyzing the progress curves with a single exponential. The value for kon and koff were calculated from the plot of the kobs vs. the antibody concentration using the following equation: […]

Series [2] concerns Colo205 tumor sections. Nature of the series: Film in situ zymography (FIZ) on frozen tumor sections. The series is classed as cell-based, human. Particulars: 500 nM; 37° C. overnight. Here is the method: (§1) PBS-control treated tumors were screened with M0237-D02 for gelatinase expression using the FIZ approach. The tumors tested were Colo205 and MCF-7. Briefly, frozen slides of tumpor sections were dried at room temperature and 200 μl of in situ Zymo buffer (TCNB)+20 μg/ml of gelatin quenched substrate from molecular probes was added. The slides were incubate at 37° C. overnight in the presence of M0237-D02 at 500 nM or GM6001 used as a positive control at 100 μM. The substrate was washed in MilliQ (3 times) and the mounted slides were treated with anti-Fade+Dapi mounting medium.

The test system of series [3] is MCF-7 tumor sections. The series is described as above. The series is classed as cell-based, human. Particulars: 500 nM; 37° C. overnight. Here is the method: as §1
Series [4] has as its system carrageenan-stimulated mouse air pouch. Nature of the series: Carrageenan-stimulated mouse air pouch, inflammatory cell infiltration. The series is classed as in vivo. The following applies: FIG. 2. The source says: The purpose of the following experiments were to determine the effect of 539A-M0237-D02 on inflammation and specifically on inflammatory cell infiltration into the carrageenan-stimulated mouse air pouch and on the arthritic index in collagen-induced arthritis (CIA) mice.
For the carrageenan-stimulated mouse air pouch model, subcutaneous injection of air into the hind flank or back of mice produces an air pouch in a week, the interior surface of which contains both fibroblast-like and macrophage-like cells. Inflammatory stimulation of the pouch results in leukocyte recruitment to the pouch and release of mediators (cytokines) into the exudate. Preventing inflammatory cell infiltration into the air pouch may translate into preventing inflammation of the synovium in rheumatoid arthritis.
The effect of 539A-M0237-D02 on inflammatory cell infiltration was compared to inflammatory cell infiltration indomethacin and a control (PBS). In addition, inflammatory cell recruitment was compared to an unstimulated mouse.

In series [5] the target is T2, human MMP-2 (Homo sapiens, UniProt P08253).
T2 construct: purchased Biomol SE-237
The series is described as follows: Enzyme inhibition assay (single point inhibition, IC50/Ki,app), substrate M-2350. The series is classed as biochemical. The procedure:
(§2) 343 unique sFabs from the anti-MMP-9/-2 M237-D02 affinity maturation campaign were discovered by phage display, produced in small scale (6 mL cultures in deep 24-well plates) and screened to select inhibitors with sub-nanomolar potency against the human enzymes and at least single-digit nanomolar potency toward the mouse orthologues. […] Isolates which appeared potent against both human and mouse MMP-2 were then subjected to IC50 analysis against hMMP-9. Sub-nanomolar inhibitors of hMMP-9 were further tested by IC50 analysis against mMMP-9 and h/m MMP-2, if sufficient small-scale sFab material was available. Thirteen potential h/m MMP-9/-2 sFab inhibitors were then produced in medium scale (250 mL cultures in flasks) and retested for h/m MMP-9 and h/m MMP-2 inhibition. Five potential lead candidates were reformatted as IgGs and retested in enzyme inhibition assays.
(§3) Human MMP-9 (Biomol #SE-244), mouse MMP-9 (R&D Systems #909-MM-010), human MMP-2 (Biomol #SE-237) and mouse MMP-2 (R&D Systems #924-MP-010) were tested at final concentrations of 1 nM, 0.25-0.4 nM, 2.5 nM and 0.2 nM, respectively. Target enzymes were incubated with inhibitor for two hours at 30° C. in reaction buffer (50 mM Tris-HCl pH 7.5, 150 mM NaCl, 5 mM CaCl2, 0.05% Brij-35) in a total volume of 90 μL using a white 96 well plate (Costar). Reactions contained 5 μL of small-scale sFab stock solution (average concentration of 500 nM) for single point inhibition analysis or a concentration series of sFab/IgG for IC50 Ki,app determinations. Commercially available anti-MMP-9 antibodies (Millipore mAb 13415 and R&D Systems polyclonal IgG #AB911) were tested by IC50 analyses using 100 nM and 500 nM as the highest inhibitor concentrations, respectively. An anti-MMP-2 antibody (R&D Systems polyclonal IgG #AF902) was similarly tested with 200 nM as the highest inhibitor concentration. Reactions were initiated by the addition of 10 μL of a 10× concentrated stock of substrate, Mca-Lys-Pro-Leu-Gly-Leu-Dap(Dnp)-Ala-Arg-NH2, (Bachem M-2350), at final concentration of 10 μM and monitored at 30° C. in a Molecular Devices' Gemini fluorescence plate reader. The excitation and emission wavelengths were set at 328 nm and 393 nm, respectively. Kinetic data were acquired by the increase in fluorescence, and initial rates for each condition were plotted against the total inhibitor concentration. Reactions were performed in duplicates and all data replicates were plotted in a single graph and fit to the following equation^1:
Where A=initial rate observed at each inhibitor concentration; Ao=initial rate observed in the absence of inhibitor; Ainh=initial rate observed for the enzyme inhibitor complex; Inh=concentration of inhibitor; E=total enzyme concentration (treated as a floated parameter); and Ki,app=apparent equilibrium inhibition constant.

The target in series [6] is MMP-9 (Homo sapiens, UniProt P14780). Described as above. Details: Human MMP-9 catalytic domain (BIOMOL, SE-244); purchased BIOMOL SE-244. The series is classed as biochemical. Here is the method: as §2
as §3, with “Commercially available anti-MMP-9 antibodies (Millipore mAb 13415 and R&D Systems polyclonal IgG #AB911) were tested by IC50 analyses using 100 nM and 500 nM as the highest inhibitor concentrations, respectively. An anti-MMP-2 antibody (R&D Systems polyclonal IgG #AF902) was similarly tested with 200 nM as the highest inhibitor concentration.” left out, “The excitation and emission wavelengths were set at 328 nm and 393 nm, respectively.” left out, “Reactions were performed in duplicates and all data replicates were plotted in a single graph and fit to the following equation^1:” left out

Setting [7] is: from plot of kobs vs. antibody concentration.

T1 sequence (P14780 107-444 limits assumed): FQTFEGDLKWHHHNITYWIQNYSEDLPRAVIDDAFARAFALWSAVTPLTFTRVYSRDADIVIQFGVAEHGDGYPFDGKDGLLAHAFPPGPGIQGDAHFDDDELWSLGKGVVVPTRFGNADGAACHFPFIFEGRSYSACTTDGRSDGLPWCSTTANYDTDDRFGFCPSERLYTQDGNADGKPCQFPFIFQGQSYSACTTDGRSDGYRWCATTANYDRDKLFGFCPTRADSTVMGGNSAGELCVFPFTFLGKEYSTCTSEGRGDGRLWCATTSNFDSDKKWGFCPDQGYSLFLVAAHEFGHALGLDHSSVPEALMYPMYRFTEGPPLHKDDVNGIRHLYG
T2 sequence (P08253 110-446 limits assumed): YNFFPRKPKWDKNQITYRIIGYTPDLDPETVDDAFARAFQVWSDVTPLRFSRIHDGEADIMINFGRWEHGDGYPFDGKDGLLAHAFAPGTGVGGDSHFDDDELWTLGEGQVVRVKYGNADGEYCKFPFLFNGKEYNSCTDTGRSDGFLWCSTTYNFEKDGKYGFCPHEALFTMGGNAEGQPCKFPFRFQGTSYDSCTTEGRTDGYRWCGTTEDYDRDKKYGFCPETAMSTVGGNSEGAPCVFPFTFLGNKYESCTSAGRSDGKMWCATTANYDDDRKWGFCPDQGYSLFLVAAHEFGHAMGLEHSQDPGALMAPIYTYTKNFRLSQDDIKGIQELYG
Sequence of MMP-9 (P14780 107-444 limits assumed): as the sequence (P14780 107-444 limits assumed) above

B1: M0237-D02: MMP-9/-2 dual reactive antibody inhibitor (parental); sFab and hIgG1 (antibody, V domains shown)
VH: EVQLLESGGGLVQPGGSLRLSCAASGFTFSQYPMWWVRQAPGKGLEWVSYIVPSGGRTYYADSVKGRFTISRDNSKNTLYLQMNSLRAEDTAVYYCAKDRAYGDYVGWNGFDYWGQGTLVTVSS
VL: DIQMTQSPATLSLSPGERATLSCRASQSISSFLAWYQQKPGQAPRLLIYDASYRATGIPARFSGSGSGTDFTLTISSLEPEDYAVYYCQQRGNWPITFGQGTRLEIK
With B1, the kobs in series [1] (M0237-D02 concentration 14.4 nM) came out at 0.0013 s⁻¹; in series [1] (M0237-D02 concentration 19.2 nM), 0.0019 s⁻¹; in series [1] (M0237-D02 concentration 28.8 nM) it was 0.0024 s⁻¹; in series [1] (M0237-D02 concentration 115.2 nM), 0.0086 s⁻¹. Further, the koff in series [1] (setting [7]) is listed as ~4 10^−4 s^−1. In series [1] (setting [7]), the kon is reported as ~7 10^4 M^−1 s^−1. Also, the “inhibition of gelatinolytic activity” value in series [2] and in series [3] was “complete inhibition” each time. Also, the lymphocyte infiltration entry in series [4] is on record as “significantly decreased”. Further, the neutrophil infiltration result in series [4] is on record as “significantly decreased”. Besides, the “total white blood cell infiltration” value in series [4] is reported as “significantly decreased”. Also, the “affinity for hMMP-2 (in words)” value in series [5] is reported as “high affinity”. Further, the “affinity for hMMP-9 (in words)” value in series [6] is “high affinity”.
